What was measured:
[1] = biological target: T1, cMet-Fc fusion protein (extracellular domain of the cMet receptor expressed as an Fc-fusion protein) (human, UniProt P08581 25-932); test: phage ELISA on cMet-Fc, competitor HGF 500 ng/mL
T1 construct: extracellular domain; also called soluble cMet-Fc-fusion protein; soluble cMet receptor; not shown: Fc part
Procedure: (§1) These assays were conducted using the peptide-displaying phage discovered from the initial selection and screening campaigns using the first generation peptide libraries. Briefly, 96-well plates were coated overnight at 4 C with 0.5 μg/mL of cMet-Fc fusion protein or TRAIL-Fc fusion protein (background). The plates were blocked for 2 hours at 37 C with 3% BSA in PBST. […] This was followed by an addition of 30 μL of peptide-displaying phage overnight culture to each well. The plates were incubated for 2 hours at room temperature, washed with PBST and cMet-binding peptide-displaying phage was detected using an HRP-conjugated anti-M13 antibody.

[2] = biological target: T1, cMet-Fc fusion protein (extracellular …); test: phage ELISA, cMet-Fc vs TRAIL-Fc
Procedure: Protein phage ELISAs using peptide-displaying phage isolates from the various selection campaigns were performed to determine specificity of the peptides for cMet versus an unrelated Fc-fusion protein (TRAIL-Fe). Briefly, 384-well plates were coated overnight at 4 C with 0.5 μg/mL of cMet-Fc fusion protein or TRAIL-Fc fusion protein (background). The plates were blocked for 2 hours 37 C with 3% (w/v) BSA in PBS containing 0.05% (v/v) Tween-20 (PBST). The plates were washed with PBST and 100 μL of peptide-displaying phage were added to each well. The plates were incubated for 2 hours at room temperature and washed with PBST. cMet-binding peptide-displaying phage were detected using an HRP-conjugated anti-M13 antibody.

[3] = biological target: T1, cMet-Fc fusion protein (extracellular …); test: phage ELISA on cMet-Fc, competitor HGF 100 ng/mL
Procedure: as §1

[4] = biological target: T2, human cMet expressed on 3T3 cells (human, UniProt P08581 25-1390); test: whole cell phage ELISA, 3T3 human cMet vs 3T3
T2 construct: whole, on cells; cells fixed with glutaraldehyde; also called cell surface-expressed human cMet; 3T3 cells that over-express human cMet
Procedure: Whole cell ELISAs were performed using 3T3 cells that over-express human cMet. […] Briefly, 96-well plates were seeded with 10⁵ cells per well. The plates were centrifuged for 5 minutes at 1600 rpm to pellet the cells. The resulting cell layer was fixed with 0.1% (v/v) glutaraldehyde for 12 minutes at 37 C. […] Peptide-displaying phage also were blocked in the above solution for 1 hour at 37 C. 100 μL of blocked phage was then added to each well and the plates were incubated for 1 hour at room temperature. The plates were washed with PBST. cMet-binding peptide-displaying phage were detected using an HRP-conjugated anti-M13 antibody.

T1 sequence (P08581 25-932): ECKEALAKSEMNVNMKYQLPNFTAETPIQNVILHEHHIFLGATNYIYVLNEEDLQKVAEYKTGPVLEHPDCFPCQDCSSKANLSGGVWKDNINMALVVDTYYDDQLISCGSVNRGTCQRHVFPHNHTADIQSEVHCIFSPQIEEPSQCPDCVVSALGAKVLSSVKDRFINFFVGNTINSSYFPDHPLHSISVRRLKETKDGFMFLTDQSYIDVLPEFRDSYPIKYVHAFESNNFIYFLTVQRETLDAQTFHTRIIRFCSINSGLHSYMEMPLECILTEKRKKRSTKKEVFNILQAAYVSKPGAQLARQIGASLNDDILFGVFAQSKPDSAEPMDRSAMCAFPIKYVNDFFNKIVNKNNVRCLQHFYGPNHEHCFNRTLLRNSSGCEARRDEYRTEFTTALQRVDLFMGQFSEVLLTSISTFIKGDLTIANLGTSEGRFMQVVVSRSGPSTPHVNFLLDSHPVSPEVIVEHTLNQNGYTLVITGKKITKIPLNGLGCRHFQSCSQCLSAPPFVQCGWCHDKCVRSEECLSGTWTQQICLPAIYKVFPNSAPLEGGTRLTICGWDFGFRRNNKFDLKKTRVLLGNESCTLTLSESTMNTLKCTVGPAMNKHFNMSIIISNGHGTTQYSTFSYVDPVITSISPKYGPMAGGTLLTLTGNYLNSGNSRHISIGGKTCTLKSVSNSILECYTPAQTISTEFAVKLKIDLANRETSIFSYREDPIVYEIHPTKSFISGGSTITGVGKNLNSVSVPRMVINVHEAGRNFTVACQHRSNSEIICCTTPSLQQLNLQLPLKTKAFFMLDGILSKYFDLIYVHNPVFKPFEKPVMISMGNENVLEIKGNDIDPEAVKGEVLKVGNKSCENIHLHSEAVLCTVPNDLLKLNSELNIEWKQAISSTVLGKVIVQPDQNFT
T2 sequence (P08581 25-1390): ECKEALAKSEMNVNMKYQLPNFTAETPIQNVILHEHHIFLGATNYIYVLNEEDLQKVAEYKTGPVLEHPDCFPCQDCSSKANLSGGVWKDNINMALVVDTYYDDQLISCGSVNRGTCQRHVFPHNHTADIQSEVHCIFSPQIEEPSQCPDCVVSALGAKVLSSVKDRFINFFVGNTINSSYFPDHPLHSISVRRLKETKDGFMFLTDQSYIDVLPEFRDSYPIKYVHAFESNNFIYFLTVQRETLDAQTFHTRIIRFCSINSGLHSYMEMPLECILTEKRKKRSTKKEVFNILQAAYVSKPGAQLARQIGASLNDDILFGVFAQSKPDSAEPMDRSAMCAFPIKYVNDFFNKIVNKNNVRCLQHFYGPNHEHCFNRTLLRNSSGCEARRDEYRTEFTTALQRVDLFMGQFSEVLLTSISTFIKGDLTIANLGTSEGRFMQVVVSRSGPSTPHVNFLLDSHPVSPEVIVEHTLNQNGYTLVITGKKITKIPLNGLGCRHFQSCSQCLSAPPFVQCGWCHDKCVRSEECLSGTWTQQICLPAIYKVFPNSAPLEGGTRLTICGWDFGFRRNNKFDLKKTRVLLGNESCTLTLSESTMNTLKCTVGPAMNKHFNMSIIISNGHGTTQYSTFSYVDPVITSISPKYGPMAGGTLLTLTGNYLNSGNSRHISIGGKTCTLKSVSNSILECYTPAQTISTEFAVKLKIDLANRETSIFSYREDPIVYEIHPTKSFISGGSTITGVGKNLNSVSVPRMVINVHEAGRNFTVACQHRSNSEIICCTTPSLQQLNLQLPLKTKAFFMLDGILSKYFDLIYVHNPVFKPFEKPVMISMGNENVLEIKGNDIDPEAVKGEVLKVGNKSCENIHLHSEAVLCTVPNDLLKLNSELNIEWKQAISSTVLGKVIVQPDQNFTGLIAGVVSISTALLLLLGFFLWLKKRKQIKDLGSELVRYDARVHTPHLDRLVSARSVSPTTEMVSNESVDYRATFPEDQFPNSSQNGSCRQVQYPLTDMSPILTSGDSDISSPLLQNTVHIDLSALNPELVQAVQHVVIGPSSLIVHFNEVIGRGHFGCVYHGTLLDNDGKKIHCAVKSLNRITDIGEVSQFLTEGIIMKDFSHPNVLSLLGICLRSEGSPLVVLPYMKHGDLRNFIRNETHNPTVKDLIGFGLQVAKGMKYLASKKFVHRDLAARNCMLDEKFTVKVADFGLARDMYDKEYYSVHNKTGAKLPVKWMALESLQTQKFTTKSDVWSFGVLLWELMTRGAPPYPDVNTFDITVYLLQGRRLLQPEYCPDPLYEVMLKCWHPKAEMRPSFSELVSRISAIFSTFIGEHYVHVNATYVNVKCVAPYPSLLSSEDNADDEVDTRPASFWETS

| Binder | % of binding in the absence of HGF [1] [%] | Protein ELISA (fold over background) [2] [fold] | % of binding in the absence of HGF [3] [%] | WC ELISA (fold over background) [4] [fold] |
| --- | --- | --- | --- | --- |
| AGQFKCAGPPSFACWMTGT [333-F09 peptide-displaying phage (SEQ ID NO: 050)] | 32 | 14.8 | 52 | 1.43 |
| AGDWICHGPPMFECEWVGT [547-H07 peptide-displaying phage (SEQ ID NO: 058)] | 45 | 15.9 | 60 | 1.17 |
| AGDWHCQGPPAFMCWMIGT [330-C01 peptide-displaying phage (SEQ ID NO: 065)] | 43 | 4.7 | 58 | 1.3 |
| GDGFLCRWENGWCEFWDP [545-E08 peptide-displaying phage (SEQ ID NO: 047)] | 57 | 4.7 | 81 | 1.3 |
| AGNYFCAGSPSFSCYFMGT [330-C10 peptide-displaying phage (SEQ ID NO: 054)] | 25 | 13.4 | 48 | 1.33 |
| AGWISCAGPPTFACWPGGT [548-F06 peptide-displaying phage (SEQ ID NO: 056)] | 18 | 14.3 | 76 | 1.23 |
| ADAWMCEYFQWNCGDKGT [458-B05 peptide-displaying phage (SEQ ID NO: 046)] | 247 | 4.5 | 201 | 1.33 |
| AGHAWCSGPPRFECWPPGT [329-D02 peptide-displaying phage (SEQ ID NO: 061)] | 31 | 3.2 | 53 | 1.27 |
| AGYYGCKGPPTFECQWMGT [330-F05 peptide-displaying phage (SEQ ID NO: 049)] | 27 | 13.8 | 51 | 1.33 |
| AGYTSCVGPPSFECTPYGT [323-A11 peptide-displaying phage (SEQ ID NO: 059)] | 18 | 21.2 | 41 | 1.43 |
| AGHGTCRGWPTFECIYFGT [332-A05 peptide-displaying phage (SEQ ID NO: 064)] | 21 | 6 | 40 | 1.4 |
| AGHYWCAGPPTFICMGPGT [550-C09 peptide-displaying phage (SEQ ID NO: 062)] | 25 | 10.2 | 25 | 1.4 |
| GSEYSCRTSRCIFSAP [452-F01 peptide-displaying phage (SEQ ID NO: 006)] | 110 | 3.2 | 117 | 1.33 |
| GSFILCWWTFCDTNAP [569-C03 peptide-displaying phage (SEQ ID NO: 007)] | 89 | 3.4 | 95 | 1.3 |
| AGFVNCKGPPTFECILTGT [538-F08 peptide-displaying phage (SEQ ID NO: 057)] | 43 | 12.3 | 55 | 1.23 |
| AGETTCLGWPTFVCVDYGT [548-E08 peptide-displaying phage (SEQ ID NO: 063)] | 50 | 5.3 | 102 | 1.27 |
| AGSIQCKGPPWFSCAMYGT [325-H05 peptide-displaying phage (SEQ ID NO: 048)] | 32 | 15.9 | 41 | 1.47 |
| AGSFACKGPPTFACVEFGT [330-B07 peptide-displaying phage (SEQ ID NO: 053)] | 40 | 18.1 | 58 | 1.27 |
| AGWFQCKGPPSFECERHGT [336-G04 peptide-displaying phage (SEQ ID NO: 051)] | 23 | 5.4 | 46 | 1.33 |
| AGYFECKGPPTFECWLSGT [333-H03 peptide-displaying phage (SEQ ID NO: 060)] | 37 | 8.1 | 55 | 1.43 |
| AGWTHCIGPPTFECIPMGT [334-G06 peptide-displaying phage (SEQ ID NO: 052)] | 43 | 8 | 56 | 1.3 |
| AGSWHCAGPPSFECWEFGT [331-G04 peptide-displaying phage (SEQ ID NO: 055)] | 36 | 18.3 | 56 | 1.47 |
| AGLPKCSGPPWFSCYYGGT [545-A09 peptide-displaying phage (SEQ ID NO: 066)] | 22 | 13.5 | 44 | 1.3 |
| GSWIICWWDNCGSSAP [571-C05 peptide-displaying phage (SEQ ID NO: 001)] | 74 | 4.9 | 102 | 1.3 |
| GSLIFCPYGECMMYAP [470-E11 peptide-displaying phage (SEQ ID NO: 005)] | 127 | 3.5 | 55 | 1.33 |
